The results in this text go back to the DeepSol protein solubility set.

A short description of this data set: soluble on expression in E. coli; label from the status in PepcDB or PDB records.
On to “MKIAIIGAGIGGLTAAALLQEQGHTIKVFEKNESVKEIGAGIGIGDNVLKKLGNHDLAKGIKNAGQILSTMTVLDDKDRLLTTVKLKSNTLNVTLPRQTLIDIIKSYVKDDVIFTNHEVTHIDNETDKVTIHFAEQESEAFDLCIGADGIHSKVRQSVNADSKVLYQGYTCFRGLIDDIDLKHPDCAKEYWGRKGRVGIVPLLNNQAYWFITINSKENNHKYSSFGKPHLQAYFNHYPNEVREILDKQSETGILLHNIYDLKPLKSFVYGRTILLGDAAHATTPNMGQGAGQAMEDAIVLVNCFNAYDFEKALQRYDKIRVKHTAKVIKRSRKIGKIAQYRSRLFVAVRNRIMKMMPNALAAGQTKFLYKSKEKLEHHHHHH”, for which the “soluble on expression in E. coli” value was “soluble”.
The result for “GGVRPATNAYGGGSTTDNPNRFMYYPSHPVPGTQGGVVLAAYSWSDDAARWDSFDDAERYGYALENLQSVHGRRIEVFYTGAGQTQSWLRDPYACGEAAVYTPHQMTAFHLDVVRPEGPVYFAGEHVSLKHAWIEGAVETAVRAAIAVNEAPVGDTGVTAAAGRRGAAAATEPMREEALTS” reads “soluble”; that for “MTEHLLAMNQKLKNPDEALSLFGNQDSFLKLMEKDLNLNIITRGETIYVSGDDESFQIADRLLGSLLALIRKGIEISERDVIYAIKMAKKNELEYFESMYEEEITKNAKGKSIRVKTMGQREYVAAMKRNDLVFGIGPAGTGKTYLAVVKAVHALKNGHIKKIILTRPAVEAGESLGFLPGDLKEKVDPYLRPLYDALHDVLGADHTERLMERGIIEIAPLAYMRGRTLDDAYVILDEAQNTTPAQMKMFLTRLGFSSKMIITGDVSQIDLPKGVKSGLAVAKEMLKGIDGISMIELDQTDVVRHPLVAKIIEAYDKQN”, “not soluble”; that for “PFEIVFEGAKEFAQLIDTASKLIDEAAFKVTEDGISMRAMDPSRVVLIDLNLPSSIFSKYEVVEPETIGVNLDHLKKILKRGKAKDTLILKKGEENFLEITIQGTATRTFRVPLIDVEEMEVDLPELPFTAKVVVLGEVLKAAVKAASLVSDSIKFIARENEFIMKAEGETQEVEIKLTLEDEGLLDIEVQEETKSAYGVSYLSDMVKGLGKADEVTIKFGNEMPMQMEYYIRDEGRLTFLLAPRVEE”, “soluble”.
The result for “RDVVGVGFGPANLALAIAIEEHNAECPPRERISAQFFEKQDRFGWHPGMLLDGATMQIAFPKDLVTFRNPRSAFTFFNYLFDQGRLVDFVNHQTFFPTRHEFHDYLQWAARRVDADVRYGTAVETVRGIRGDDGVIDRFEVRTADGSTVIARNVVMGAGLRERIPEWANPSARCFHNHQFLFRLGEMPAPVHHRFVVLGAGQSAAEIVQYLHGN” reads “not soluble”.
In the case of “MSIEWYAVHTLVGQEEKAKANLEKRIKAFGLQDKIFQVLIPTEEVVELREGGKKEVVRKKLFPGYLFIQMDLGDEEEPNEAWEVVRGTPGITGFVGAGMRPVPLSPDEVRHILEVSGLLGKKEAPKAQVAFREGDQVRVVSGPFADFTGTVTEINPERGKVKVMVTIFGRETPVELDFSQVVKA” it was “soluble”; in that of “MASSASDGTHERSAFRLSPPVLSGAMGPFMHTGLYVAQSWRDYLGQQPDKLPIARPTIALAAQAFRDEIVLLGLKARRPVSNHRVFERISQEVAAGLEFYGNRRWLEKPSGFFAQPPPLTEVAVRKVKDRRRSFYRIFFDSGFTPHPGEPGSQRWLSYTANNREYALLLRHPEPRPWLVCVHGTEMGRAPLDLAVFRAWKLHDELGLNIVMPVLPMHGPRGQGLPKGAVFPGEDVLDDVHGTAQAVWDIRRLLSWIRSQEEESLIGLNGLSLGGYIASLVASLEEGLACAILGVPVADLIELLGRHCGLRHKDPRRHTVKMAEPIGRMISPLSLTPLVPMPGRFIYAGIADRLVHPREQVTRLWEHWGKPEIVWYPGGHTGFFQSRPVRRFVQAALEQSGLLDAPRTQRDRSA”, “not soluble”; in that of “MKTIHVSVVTPDGPVYEDDVEMVSVKAKSGELGILPGHIPLVAPLEISAARLKKGGKTQYIAVSGGFLEVRPDKVTILAQAAERAEDIDVLRAKAAKERAERRLQSQQDDIDFKRAELALKRAMNRLSVAEMK”, “soluble”.
In the case of “MTAFSTLNVLPPAQLTNLNELGYLTMTPVQAAALPAILAGKDVRVQAKTGSGKTAAFGLGLLQQIDASLFQTQALVLCPTRELADQVAGELRRLARFLSNTKILTLCGGQPFGMQRDSLQHAPHIIVATPGRLLDHLQKGTVSLDALNTLVMDEADRMLDMGFSDAIDDVIRFAPASRQTLLFSATWPEAIAAISGRVQRDPLAIEIDSTDALPPIEQQFYETSSKGKIPLLQRLLSLHQPSSCVVFCNTKKDCQSVCDALNEVGQSALSLHGDLEQRDRDQTLVRFANGSARVLVATDVAARGLDIKSLELVVNFELAWDPEVHVHRIGRTARAGNSGLAISFCAPEEAQRANIISDMLQIKLNWQTLPANSSIVPLEAEMATLCIDGGKKAKMRPGDVLGALTGDIGLDGADIGKIAVHPAHVYVAVRQAVAHKPWKQLQGGKIKGKTCRVRLLK”, the “soluble on expression in E. coli” value is listed as “soluble”.
In the case of “MGSDKIHHHHHHMDTLIRRYKRLLTATSTTYIRSLMDTINWDNRLIAIRGARGVGKTTLMLQYLKLHYANDSQSALYTSLDSLYFTQHTLSELAEQFYLKGGKCLFLDEVHKYPSWSKEIKNIYDEFPELKIVFTGSSLLQLLNAEADLSRRCISYNMQGLSYREYLKLFHQIHIRPYTLEEILESSDGICNEVNSQCRPLAHFEDYLKHGYYPFYLEGNAEYYTRIENITNLILEIELPQQCGVDISNVRKLKSLLGILSSEVPFMVDITKLSALAELSRTTILAYLQYLDRAKLIHLLYSDNDSIKKLQKPDKIYMENTNLLYALTFKDVNKGTLREVFMVNQLSYLHRVEYCTRSADYTIDSKYTIEVGGKSKDGKQIAGSKKAFIAADDIEYSAGNKIPLWAFGFLY” it was “not soluble”; in that of “MSRNDSLISIIVPVYNVEQYLSRCVDSLVNQTYHNIEIILVDDGSPDRSGEICDEYAKKDKRVKVIHQSNGGLSDARNTALDIAKGDYLMFVDSDDWIEKKTCEILNRLASDYKADTVIFGLNFVFDSGKVIRSKRGMAGLTDKNMCMKYLIHNVARGGIFNYACNKMFSSHLFEGLRFPVGRLAEDQDVIYKLIHRSQRIYVTEQPLYNYYQRDGSITAAQYYPRLIRDRHELWLKRLDFIREYYPDLENYQIAQILGAAYVGIVKLEGNKQNGELKKKLICFSNKYILKEKELSVLDRKIKLHYYCYPLFWLYVKLFIK”, “not soluble”.
The result for “MSLQTRPILVVGATGKTGSRVAAKLEAKGAAVRRGSRHAEIPFDWESPATWAPALSGVSRAYVTYFPDLAFPGAVEKLEAFTKVAAASGLDQIVLLSGRGEHHARLGEKVVETSGIPFTIVRAAWFAQNFSEGYLRDPVVAGVLPMPGGDIAEPIIDIDDIADVVVAALSEDGHAGQLYEVTGPRLMTFAEMAKVLSTATGRPIRHLPISFEDFHANVAAAGGEFVADVFTAIARETLDGRNAYVSDGVERALGRKPRDFAAFAAAAASQGLWTAAEGHHHHHH” reads “soluble”; that for “MSLLTVGIVDDNPRDLEKLELIVNNMENVELILKANSADEVYHSIQKTPVDLLITDIEMPGMSGYQLADFIQLNNMKTAVIFVTAKSGYAVHAFELNVHDYILKPFNPDRLIQSIDRFTEKKDAGRVTGRLFIRSDGDLVVVPKAEIIFLERTGRTTTIHTINETYETYQSLGELEGDIRESMFIRSHRSFIINLQYVKRFASYSKKSFVVIFEGSSGKALVTKEKLKYLQENYEGHHHHHH”, “not soluble”; that for “MKQLTILGSTGSIGNSTLSVVRANPELFKVTALVAGRNVREMAQQCLEFSPRYAAMSDEHSAKSLRLLLAEQGSDTEVYSGETAACELAALDDVDQVMAAIVGIAGLPSTLAAIRAGKQVLLANKESLITCGKLFMDEVKRSRAQLLPIDSEHNAIFQSLPERIQRQLGYSSLNENGVSRIILTGSGGPFRETPLSQFSDVTPDQACAHPNWSMGRKISVDSATMMNKGLEYIEARWLFNASAEQIEVVLHPQSVIHSMVRYHDGSILAQMGTPDMRTPIAHAMAYPMRVSSGVAPLDFCKVGALTFTTPDYQRYPCLKLAIDACNAGQAATTALNAANEISVMAFLDSKIRFTDIEVINRTVVEGLLLSEPTSVEEVLVIDRKARDVAAQVIAKLNN”, “not soluble”.
The result for “AHHHHHHGSKAPICEVCLKTEDILCPADEKKLEEGIITELDVKISRMLYKLLGDADVEFKKAVEAGDLIVLIVGEGDVPIVIGKGGKNIKYLTRELGKRVRVIESTDDVKKLAVDLLYPAGVFGVNVVYKPDGGQYYKVLVFSRDKSKLPEKSEVLESILTQITGVETKISFI” reads “soluble”; that for “MFYPDPFDVIIIGGGHAGTEAAMAAARMGQQTLLLTHNIDTLGQMSCNPAIGGIGKGHLVKEVDALGGLMAKAIDQAGIQFRILNASKGPAVRATRAQADRVRYRQAVRTALENQPNLMIFQQAVEDLIVENDRVVGAVTQMGLKFRAKAVVLTVGTFLDGKIHIGLDNYSGGRAGDPPSIPLSRRLRELPLRVGRLKTGTPPRIDARTIDFSVLAQQHGDNPMPVFSFMGNASLHPQQVPCYITHTNEKTHDVIRSNLDRSPMYAGVIEGVGPRYCPSIEDKVMRFADRNQHQIFLEPEGLTSNEIYPNGISTSLPFDVQMQIVRSMQGMENAKIVRPGYAIEYDFFDPRDLKPTLESKFIQGLFFAGQINGTTGYEEAAAQGLLAGLNAARLSADKEGWAPARSQAYLGVLVDDLCTLGTKEPYRMFTSRAEYRLMLREDNADLRLTEIGRELGLVDDERWARFNEKLENIERERQRLKSTWVTPSAEAAAEVNAHLTAPLSREASGEDLLRRPEMTYEKLTTLTPFAPALTDEQAAEQVEIQVKYEGYIARQQDEIEKQLRNENTLLPATLDYRQISGLSNEVIAKLNDHKPASIGQASRISGVTPAAISILLVWLKKQGMLRRSA”, “not soluble”.
Regarding “VPGTLLPRLPSEPGMTLLTIRIEKIGLKDAGQCIDPYITVSVKDLNGIDLTPVQDTPVASRKEDTYVHFNVDIELQKHVEKLTKGAAIFFEFKHYKPKKRFTSTKCFAFMEMDEIKPGPIVIELYKKPTDFKRKKLQLLTKKPLYLHLHQSLHKE”, the “soluble on expression in E. coli” value was “soluble”.
In the case of “MAGHVNGTCAPVIPKVGDEEDGVGQLVANLKEKGTNFVLLKKTPQILELQTILKDRSTNHSDFVFNADRLMRLVIEECLNHLPFTEHTVTTPTGFKYEGIQFNRGNCGVSLCRSGEAMEVSLRQCCRCIRIGKILIGDEQKVLYARLLPDITSRRVLLLYPTIGSGTTVCKAIEVLKEARVPDENIYLVSLFISPTGLKNITRKYPYITVVASDITSLYPNHFSTSYFGAV” it was “not soluble”; in that of “MGSDKIHHHHHHMFVSPMLLHSIKEPFNDENYITELKFDGIRLILSKFDNQIKLYTRHNNEVTSKFPELMDLDIPDGTVLDGEVIVAASGGAPDFEAVMERFMSKKSAHNIVYCVFDVIYKDGQSIAAKPLTERKTVLNSLELDHPNVFVIEGTQGNGLAYFNLAKEKNLEGIVIKKANSPYEINKRSHNWLKVINYDYTEVLITGYTKKDIKFLLSYPDGTSAGFMEFMPHAERTKFHSMKQVKSESDEYVFIEPILCNVKHRFKTKHGKLRIPSFESWRV”, “not soluble”.
In the case of “MPTKANTQRNWTIMVYLAGDNNLDSAGVVDLKEMKTVGTTDKIAVLAQFDRAGAKQATIRYCLKQGTPLAKDAVQSLGETNMGDPKVLEDFVTWGVANYPADHYLLVLWNHGAGWDDANLYQGDVFSGAAPPVSRKAQPVATRGATAGAKAIPLAQARAGIRRARRALFSTTVEAAIKQRGIAFDDQAQDFLDNIELKRVLTAIKKKLKRKIDIVGMDACLMSMAEVAYQMRDVADYSVGSEETEPGDGWPYDRILKALAAKPAMTPEELSKTIVAQYLASYKATENVTQSAMKLLALNPLATAVDGMAKALTGILGDTAARTALINARSQVQEYSRPYDDYCDLLDLCDLIGKGVASPAVKTACAKVKDAAAAAIVAAGYKGTGVDNSGGISIYFPKRKLSPLYKTLDFTKKTAWDEFLAAYLAGLGRLEHHHHHH” it was “soluble”.
